Consider five molecules from article PMC7442695 (Nature, 2020).

B1: C009 monoclonal antibody (IgG) (antibody, V domains shown)
VH: not shown
VL: QSALTQPPSASGSPGQSVTISCTGTSSDVGGYNYVSWYQQHPGKAPKLMIYEVSKRPSGVPDRFSGSKSGNTASLTVSGLQAEDEAEYYCSSDAGSNNVVFGGGTKLTVL
B2: C121 monoclonal antibody (IgG) (antibody, V domains shown)
VH: not shown
VL: QSALTQPASVSGSPGQSITISCTGTSSDVGSYNLVSWYQQHPGKAPKLMIYEGSKRPSGVSNRFSGSKSGNTASLTISGLQAEDEADYYCCSYAGSSTLVFGGGTKLTVL
B3: C002 monoclonal antibody (IgG) (antibody, V domains shown)
VH: EVQLVESGGGVVQPGRSLRLSCAASGFTFSIYGMHWVRQAPGKGLEWVAVISYDGSNKYYADSVKGRFTISRDNSKNTLYLQMNSLRAEDTAVYYCAKEGRPSDIVVVVAFDYWGQGTLVTVSS
VL: not shown
B4: C119 monoclonal antibody (IgG) (antibody, V domains shown)
VH: QVQLVQSGAEVKKPGASVKVSCKASGYTFTSYYMHWVRQAPGQGLEWMGIINPSGGSTSYAQKLQGRVTMTRDTSTSTVYMELSSLRSEDTAVYYCARANHETTMDTYYYYYYMDVWGKGTTVTVSS
VL: QSALTQPASVSGSPGQSITISCTGTSSDVGGYKYVSWYQRHPGKAPKLMIYDVSNRPSGVSNRFSGSKSGNTASLTISGLQAEDEADYYCSSYTSSSTSVVFGGGTQLTVL
B5: C101 monoclonal antibody (IgG) (antibody, V domains shown)
VH: QVQLVESGGGLIQPGGSLRLSCAASGFIVSSNYMSWVRQAPGKGLEWVSVIYSGGSTFYTDSVKGRFTISRDNSKNTLYLQMNSLRAEDTAVYYCVRDYGDFYFDYWGQGTLVTVSS
VL: EIVLTQSPGTLSLSPGERATLSCRASQSVSSSYLAWYQQKPGQAPRLLIYGASSRATGIPDRFSGGGSETDFTLTISRLEPEDCAVYYCQQYGSSPRTFGQGTKVEIK

The assay deals with SARS-CoV-2 receptor binding domain (RBD; residues 331–524) (SARS-CoV-2, early isolate (GenBank …, UniProt P0DTC2). Nature of the assay: BLI. A general note: In BLI a coated tip is dipped into the sample, and binding shifts an interference pattern.
As to B1, the binding result is listed as “binds”.
B2: the binding result was “binds”.
Turning to B3, the binding result is listed as “binds”.
The value for B4 was “binds”; that for B5 was “binds”.
